Key:
[1] = Body weight of CD-1 mice, 4-week SC treatment; format: in vivo
Procedure: Detailed Methods: Adult male CD-1 mice at 6 weeks of age at receipt (with an expected weight of 35-39 g) were purchased from Charles River (St Germain sur l'Arbresle, France). From receipt, mice were singly housed and allowed ad libitum access to water and to a control diet (pellet A04; SAFE, Villemoisson-sur-Orge, France), unless otherwise noted (see Section D.). Throughout the study, animals were maintained in an ambient temperature (22.0±1.0° C.) and humidity (40-50%) controlled room on a 12-h light/12-h dark cycle (9:00 PM: Light ON/9:00 AM Light OFF).
At receipt and until the end of the experiment, all animals fed the control diet (A04 pellet). Following the acclimation and habituation periods, forty-eight (48) mice were subcutaneously treated either with vehicle, liraglutide (as the benchmark) or 89BIO-100 (3 different doses tested).
(§1) From T1 to T28, vehicle and 89BIO100 (at the 3 different doses) were administrated by subcutaneous (SC) injection three times a week, while the treatment with liraglutide was administrated by subcutaneous route, twice a day, every day. It was important to notice that the first dosing was done just before the […] (at 9:00 AM) and the second dosing was done 8 hours after the first one (at 5:00 PM). Throughout the treatment period, FI and BW were daily measured.
General Methods: Naive CD-1 mice were treated subcutaneously (SC) for 4 weeks at ambient temperature with BIO89-100 at doses of 0, 0.3, 1.0 and 3.0 mg/kg (3qW×4 weeks) or with liraglutide at 0.2 mg/kg (BID×4 W; SC). BW and FC were measured daily throughout the treatment period. To investigate the impact of BIO89-100 on energy expenditure, the respiratory exchanges (VO2 and VCO2) were recorded during 3 distinct sessions of METABOpack™, a multiparametric approach allowing an automated and simultaneous recording of FC, water intake, respiratory exchanges and spontaneous activity. Meal pattern analysis was conducted on the high-resolution recordings of FC. The body composition (fat, lean and fluid masses) was analyzed 3 times during the study by the mean of Time-Domain Nuclear Magnetic Resonance (TD-NMR).

[2] = Food intake and meal pattern (daily and METABOpack sessions); format: in vivo, CD-1 mice
Excerpt: During the METABOpack™ sessions, animals were housed singly in the Physiocage System (Panlab/Harvard apparatus), which was composed of: • 8 physiocages (LE1301) • 8 Air tight lids for mouse (LE1303) • 8 grid floors for mouse (LE1317) • 8 Feeding bottles for mouse (LE1306) • 2 Air supply and switching units for up to 4 home cages each (LE4004FL) • 1 O2/CO2 analyzer (LE405) • 1 acquisition software suite, METABOLISM (V3.0).
as §1
In the present project, a METABOpack™ session was consisted of a 12-hour period of acclimation followed by a 48-hour period of recording of the respiratory exchanges, FI, water intake (WI) and locomotor activity of each animal.
Following this acclimation period, the parameters cited above were automatically and simultaneously recorded for 48 hours, except for body weight that was measured manually every day.
The METABOpack™ sessions were conducted at the start (T1-2), the middle (T14-15) and the end (T26-27) of the treatment period.
Meal pattern analysis was performed on high-resolution recordings of food intake obtained during the METABOpack™ sessions. The Physiocage system allowed recording food intake with an accuracy of 1 measure per second and a precision of 0.02 g. The physiocages were equipped with a system allowing to precisely collect the spillage of the animals, by the mean of a platform located under the food dispenser. This platform and the spillages it contains, were permanently weighted by the system and the values added to the total weight of the food dispenser. With this system, the progressive decrease in the food dispenser net weight only reflected the food consumption of the animals. The analysis was performed by plotting data every minute. Each weight variation of the feeding container (transition from one stable value to another) was considered as a “bout”, with each bout separated from each other bout by an “inter-bout interval”. A meal consisted of at least one bout, with each meal separated from each other meal by a “post-meal interval”. For the purpose of this study, a meal was defined as any feeding episode causing a change in food weight of 0.02 g and separated by at least 5 min from any subsequent episode. Based on this criterion, the following parameters were calculated for each experimental group: […]

[3] = T1, WD and NP, three doses, vs Liraglutide
[4] = T2, WD, three doses, vs Liraglutide
[5] = T2, WD, three doses, vs vehicle
[6] = first meal on T14, 3 mg/kg, vs 1 mg/kg
[7] = first meal on T14, 3 mg/kg, vs vehicle

B1: Mutant FGF21-GalNAc-SA-PEG-20 kDa (conjugate)
chain: MHPIPDSSPLLQFGGQVRQRYLYTDDAQQTEAHLEIREDGTVGGAADQSPESLLQLKALKPGVIQILGVKTSRFLCQRPDGALYGSLHFDPEACSFRELLLEDGYNVYQSEAHGLPLHLPGNKSPHRDPAPRGPARFLPLPGLPPALPEPPGILAPQPPDVGSSDPLSMVGPTQGASPSYAS
delta body weight ([1]; 0.3 mg/kg, vs Liraglutide, T2-T11, T13-T16): increase in delta body weight | body weight ([1]; 0.3 mg/kg, vs Liraglutide, T2-T24 and T26): greater body weight | delta body weight ([1]; 0.3 mg/kg, vs vehicle, T3-T6): increase in delta body weight | delta body weight ([1]; 1 mg/kg, vs 0.3 mg/kg, T6-T21): significant decrease in delta body weight | body weight ([1]; 1 mg/kg, vs Liraglutide, T2-T5): greater body weight | delta body weight ([1]; 1 mg/kg, vs vehicle, T8-T21, T23, T24): marked decrease in delta body weight | delta body weight ([1]; 3 mg/kg, vs 0.3 mg/kg, T5-T28): marked decrease in delta body weight | delta body weight ([1]; 3 mg/kg, vs 1 mg/kg, T11, T12, T13, T15): significant decrease in delta body weight | body weight ([1]; 3 mg/kg, vs 0.3 and 1 mg/kg, over treatment period): reduced the body weight | delta body weight ([1]; 3 mg/kg, vs Liraglutide, T8-T13 and T25): significant decrease in delta body weight | body weight ([1]; 3 mg/kg, vs Liraglutide, T11-T13): lower body weight | delta body weight ([1]; 3 mg/kg, vs vehicle, T3 and T6-T28): marked decrease in delta body weight | body weight ([1]; 3 mg/kg, vs vehicle, except T2, T3, T4): lower body weight | body weight ([1]; 0.3 and 1 mg/kg, vs vehicle): did not show any difference in body weight | body weight ([1]; 1 and 3 mg/kg, throughout treatment period (summary)): lower body weight in dose-dependent manner | delta body weight ([1]; 1 and 3 mg/kg, vs Liraglutide, T2-T4): increase in delta body weight | decrease in BW ([1]; naive CD-1 mice, 0.3-3.0 mg/kg SC 3qW x 4 weeks, dose-dependent, up to): up to −13.8% | mean meal size ([2]; BIO89-100-treated mice): no change | mean meal number ([2]; BIO89-100-treated mice, related to increased FC): increase in mean meal number | cumulative food intake ([2]; T1, 0.3 mg/kg, vs vehicle, at 5 h, 6 h, 15-24 h): increased | cumulative food intake ([2]; T1, 1 mg/kg, vs vehicle, at 1 h, 3 h, 18-24 h): increased | cumulative food intake ([2]; T1, 3 mg/kg, vs vehicle, 10-12 h and 14-17 h): increased | mean meal size ([2]; T1, DP, 0.3 mg/kg, vs Liraglutide): increased | mean meal size ([2]; T1, DP, 3 mg/kg, vs 0.3 and 1 mg/kg): decreased | mean meal size ([2]; T1, DP, 3 mg/kg, vs vehicle): reduced | mean food intake ([2]; T1, DP, between groups): no significant difference | mean food intake ([2]; T1, NP and WD, between the three 89BIO-100 groups): No significant difference | mean food intake ([2]; T1, NP and WD, whatever the dose, vs Liraglutide): increase in mean food intake | mean food intake ([2]; T1, NP, 3 mg/kg, vs vehicle): higher | mean meal number [2, 3]: increased | mean satiety ratio [2, 3]: decreased | mean food intake ([2]; T1, WD, 0.3 and 1 mg/kg, vs vehicle): increased | cumulative food intake ([2]; T1, between the three 89BIO-100 groups): no significant difference | cumulative food intake ([2]; T1, three doses, vs Liraglutide, 5-24 h): increase in cumulative food intake | cumulative food intake ([2]; T2, 0.3 mg/kg, vs Liraglutide, at 5 h, 6 h, 10-24 h): increased | cumulative food intake ([2]; T2, 1 mg/kg, vs Liraglutide, 4-24 h): increased | cumulative food intake ([2]; T2, 3 mg/kg, vs 0.3 mg/kg, at 1 h and 2 h only): slightly increased | cumulative food intake ([2]; T2, 3 mg/kg, vs Liraglutide, over 24 h except at 4 h): increased | cumulative food intake ([2]; T2, 3 mg/kg, vs vehicle, over 24 h except at 4 h): increased | cumulative food intake ([2]; T2, 0.3 and 1 mg/kg, vs vehicle, 13-24 h): increase in cumulative food intake | cumulative food intake ([2]; T2, 1 vs 3 mg/kg and 0.3 vs 1 mg/kg): no significant difference | mean food intake ([2]; T2, DP, between groups): no significant difference | mean food intake ([2]; T2, NP and WD, between the three 89BIO-100 groups): No significant difference | mean food intake ([2]; T2, NP and WD, whatever the dose, vs Liraglutide): increase in mean food intake | mean food intake ([2]; T2, NP, 3 mg/kg, vs vehicle): higher | mean meal number ([2]; T2, WD, 0.3 and 3 mg/kg, vs vehicle): increased | mean meal number [2, 4]: increased | mean post-meal interval [2, 4]: decreased | satiety ratio [2, 4]: decreased | mean food intake [2, 5]: increased | mean post-meal interval [2, 5]: shorter | mean food intake ([2]; T15, WD only, whatever the dose, vs Liraglutide): increased | mean food intake ([2]; T15, WD only, whatever the dose, vs vehicle): increased | mean meal duration ([2]; T27, 3 mg/kg, vs vehicle, 0.3 and 1 mg/kg groups): significant increase in mean meal duration | mean post-meal interval ([2]; first meal on T14, 0.3 mg/kg, vs vehicle): reduction in mean post-meal interval | mean satiety ratio ([2]; first meal on T14, 1 mg/kg, vs 0.3 mg/kg): higher | mean post-meal interval ([2]; first meal on T14, 1 mg/kg, vs Liraglutide): increase in mean post-meal interval | mean post-meal interval [2, 6]: reduction | mean satiety ratio [2, 6]: reduction | mean post-meal interval [2, 7]: decrease | mean satiety ratio [2, 7]: decrease | mean post-meal interval ([2]; first meal on T15, 1 mg/kg, vs Liraglutide): increase in mean post-meal interval | mean post-meal interval ([2]; first meal on T15, 3 mg/kg, vs 1 mg/kg): lower | mean post-meal interval ([2]; first meal on T15, 3 mg/kg, vs vehicle): decrease in mean post-meal interval | mean first meal latency ([2]; first meal on T15, three doses, vs vehicle): reduced | mean first meal latency ([2]; first meal on T26, 3 mg/kg, vs Liraglutide): increase in mean first meal latency | mean first meal latency ([2]; first meal on T26, 0.3 and 1 mg/kg, vs vehicle): increase in mean first meal latency | increase in FC ([2]; naive CD-1 mice, 0.3-3.0 mg/kg SC 3qW x 4 weeks, up to): up to +94% | food intake ([2]; summary, significantly increased on T1, T2 and T15): increased
